This passage reports IC50, inhibition of HIV Env-mediated cell fusion (vaccinia virus-based reporter gene assay) results from patent publication US20060281673A1, “Novel peptide inhibitor of hiv fusion that disrupts the internal trimeric coiled-coil of gp41” (priority 2003, published 2006).

The assay concerns the target pre-hairpin intermediate of gp41 (HIV-1 Env on effector cells) (HIV-1) (UniProt P03377). In words: cell-based or functional assay.

N36 peptide had an IC50, inhibition of HIV Env-mediated cell fusion (vaccinia virus-based reporter gene assay) of 16 µM.
